# Laboratory results taken from patent US20080058263A1 (published 2008).
# T1: VEGFR-3-Fc (UniProt P35916 25-328)
# T1 construct: domain: first three Ig domains; conditioned supernatant of 293T cells; also called VEGFR-3-Fc fusion protein; not shown: Fc fragment of the pIg vector
# T1 sequence (looked up): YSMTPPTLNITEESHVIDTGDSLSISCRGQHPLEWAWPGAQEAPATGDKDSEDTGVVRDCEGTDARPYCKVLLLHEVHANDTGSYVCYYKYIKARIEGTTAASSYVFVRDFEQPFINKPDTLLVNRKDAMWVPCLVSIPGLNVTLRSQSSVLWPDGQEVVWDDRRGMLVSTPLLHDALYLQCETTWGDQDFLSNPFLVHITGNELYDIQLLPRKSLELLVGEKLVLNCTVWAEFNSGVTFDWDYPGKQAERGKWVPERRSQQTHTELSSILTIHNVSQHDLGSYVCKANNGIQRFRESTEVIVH
# Assays:
# Assay in all cases: receptor-Fc IP
# VEGFR-1-Fc = target: T2, VEGFR-1-Fc (UniProt P17948 27-338)
# T2 construct: domain: first three Ig domains; expressed in Drosophila S2 cells, purified on Protein A sepharose; also called VEGFR-1-Fc fusion protein; not shown: Fc fragment from the Signal-pIgPlus vector
# T2 sequence (P17948 27-338): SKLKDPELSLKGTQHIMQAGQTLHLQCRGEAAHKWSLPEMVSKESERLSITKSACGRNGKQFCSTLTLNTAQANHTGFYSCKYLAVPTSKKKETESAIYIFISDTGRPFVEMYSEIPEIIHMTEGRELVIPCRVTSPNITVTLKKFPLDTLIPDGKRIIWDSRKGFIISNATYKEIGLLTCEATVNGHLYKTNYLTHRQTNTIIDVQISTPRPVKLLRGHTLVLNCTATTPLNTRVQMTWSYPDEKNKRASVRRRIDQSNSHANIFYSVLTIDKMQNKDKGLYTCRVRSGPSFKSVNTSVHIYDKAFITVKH
# Procedure, shortened: (§1)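 fusion protein at 400 ng/ml in an IP mix (PBS, 1.5% BSA, 0.06% Tween 20, 3 μg/ml heparin) was combined with sample supernatant at a 1:2 ratio. Bound ligand captured by immunoprecipitation with pentahistidine antibody.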
# VEGFR-3-Fc = target: T1, VEGFR-3-Fc
# Procedure, shortened: as §1
# VEGFR-2-Fc = target: T3, VEGFR-2-Fc (UniProt P35968 20-322)
# T3 construct: domain: first 3 Ig domains; conditioned supernatant of 293T cells; also called VEGFR-2-Fc fusion protein; not shown: Fc fragment of the pIg vector
# T3 sequence (P35968 20-322): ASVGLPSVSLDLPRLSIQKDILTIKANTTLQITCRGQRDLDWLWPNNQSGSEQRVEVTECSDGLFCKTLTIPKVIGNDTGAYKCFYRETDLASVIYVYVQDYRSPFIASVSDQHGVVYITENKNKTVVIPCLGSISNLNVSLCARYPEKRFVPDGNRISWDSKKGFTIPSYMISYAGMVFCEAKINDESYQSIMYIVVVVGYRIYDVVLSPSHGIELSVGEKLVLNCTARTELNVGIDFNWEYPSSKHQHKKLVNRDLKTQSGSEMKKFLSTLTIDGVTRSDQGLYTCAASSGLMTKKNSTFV
# Procedure, shortened: as §1
Binder,binding result (VEGFR-1-Fc),binding result (VEGFR-3-Fc),binding result (VEGFR-2-Fc)
62-14 (ligand) GQNHHEVVKFMDVYQRSYCHPREVCIDVGKEFGVATNTFFKPPCVSVYRCGGCCNDEGLECMNTSTSYLSKTLFEITVPLSQGPKPVTISFANHTSCRCMSKLD,no binding,no binding,no binding
42-14 (ligand) AHYNTEILKFMDVYQRSYCHPREVCIDVGKEFGVATNTFFKPPCVSVYRCGGCCNDEGLECMNTSTSYLSKTLFEITVPLSQGPKPVTISFANHTSCRCMSKLD,no binding,no binding,no binding
42-16 (ligand) AHYNTEILKFMDVYQRSYCHPREVCIDVGKEFGVATNTFFKPPCVSVYRCGGCCNSEGLQCMNTSTSYLSKTLFEITVPLSQGPKPVTISFANHTSCRCMSKLD,no binding,no binding,no binding
44-14 (ligand) AHYNTEILKFMDVYQRSYCHPREVCIDVGKEFGVATNTFFKPSCVPLMRCGGCCNDEGLECMNTSTSYLSKTLFEITVPLSQGPKPVTISFANHTSCRCMSKLD,no binding,no binding,no binding
62-10 (ligand) GQNHHEVVKFMDVYQRSYCHPREVCIDVGKEFGVATNTFFKPPCVSVYRCGGCCNDEGLECMNTSTSYLSKTLFEITVPLSQGPKPVTISFLQHNKCECRPKKD,no binding,no binding,binds
62-12 (ligand) GQNHHEVVKFMDVYQRSYCHPREVCIDVGKEFGVATNTFFKPPCVSVYRCGGCCNSEGLQCMNTSTSYLSKTLFEITVPLSQGPKPVTISFLQHNKCECRPKKD,no binding,no binding,no binding
62-16 (ligand) GQNHHEVVKFMDVYQRSYCHPREVCIDVGKEFGVATNTFFKPPCVSVYRCGGCCNSEGLQCMNTSTSYLSKTLFEITVPLSQGPKPVTISFANHTSCRCMSKLD,no binding,no binding,no binding
63-14 (ligand) GQNHHEVVKFMDVYQRSYCHPREVCIDVGKEYPDEIEYIFKPPCVSVYRCGGCCNDEGLECMNTSTSYLSKTLFEITVPLSQGPKPVTISFANHTSCRCMSKLD,no binding,no binding,no binding
63-16 (ligand) GQNHHEVVKFMDVYQRSYCHPREVCIDVGKEYPDEIEYIFKPPCVSVYRCGGCCNSEGLQCMNTSTSYLSKTLFEITVPLSQGPKPVTISFANHTSCRCMSKLD,no binding,no binding,no binding
64-10 (ligand) GQNHHEVVKFMDVYQRSYCHPREVCIDVGKEFGVATNTFFKPSCVPLMRCGGCCNDEGLECMNTSTSYLSKTLFEITVPLSQGPKPVTISFLQHNKCECRPKKD,no binding,no binding,no binding
64-14 (ligand) GQNHHEVVKFMDVYQRSYCHPREVCIDVGKEFGVATNTFFKPSCVPLMRCGGCCNDEGLECMNTSTSYLSKTLFEITVPLSQGPKPVTISFANHTSCRCMSKLD,no binding,no binding,no binding
64-16 (ligand) GQNHHEVVKFMDVYQRSYCHPREVCIDVGKEFGVATNTFFKPSCVPLMRCGGCCNSEGLQCMNTSTSYLSKTLFEITVPLSQGPKPVTISFANHTSCRCMSKLD,no binding,no binding,no binding
62-11 (ligand) GQNHHEVVKFMDVYQRSYCHPREVCIDVGKEFGVATNTFFKPPCVSVYRCGGCCNSEGLQCVPTEESNITMQIMRITVPLSQGPKPVTISFLQHNKCECRPKKD,no binding,binds,binds
61-13 (ligand) GQNHHEVVKFMDVYQRSYCHPREVCIDVGKEYPDEIEYIFKPSCVPLMRCGGCCNDEGLECVPTEESNITMQIMRITVPLSQGPKPVTISFANHTSCRCMSKLD,no binding,no binding,no binding
13-13 (ligand) GQNHHEVVKFMDVYQRSYCHPIETLVDIFQEYPDEIEYIFKPPCVSVYRCGGCCNDEGLECVPTEESNITMQIMRITVPLSQGPKPVTISFANHTSCRCMSKLD,binds,no binding,no binding
43-13 (ligand) AHYNTEILKFMDVYQRSYCHPREVCIDVGKEYPDEIEYIFKPPCVSVYRCGGCCNDEGLECVPTEESNITMQIMRITVPLSQGPKPVTISFANHTSCRCMSKLD,no binding,no binding,no binding
62-13 (ligand) GQNHHEVVKFMDVYQRSYCHPREVCIDVGKEFGVATNTFFKPPCVSVYRCGGCCNDEGLECVPTEESNITMQIMRITVPLSQGPKPVTISFANHTSCRCMSKLD,no binding,no binding,binds
63-9 (ligand) GQNHHEVVKFMDVYQRSYCHPREVCIDVGKEYPDEIEYIFKPPCVSVYRCGGCCNDEGLECVPTEESNITMQIMRITVPLSQGPKPVTISFLQHNKCECRPKKD,no binding,no binding,no binding
63-1 (ligand) GQNHHEVVKFMDVYQRSYCHPREVCIDVGKEYPDEIEYIFKPPCVSVYRCGGCCNDEGLECVPTEESNITMQIMRIKPHQGQHIGEMSFLQHNKCECRPKKD,binds,no binding,binds
73-7 (ligand) GQNHHEVVKSIDNEWRKTQCMPREVCIDVGKEYPDEIEYIFKPPCVSVYRCGGCCNSEGLQCVPTEESNITMQIMRIKPHQGQHIGEMSFANHTSCRCMSKLD,no binding,no binding,binds
71-11 (ligand) GQNHHEVVKSIDNEWRKTQCMPREVCIDVGKEYPDEIEYIFKPSCVPLMRCGGCCNSEGLQCVPTEESNITMQIMRITVPLSQGPKPVTISFLQHNKCECRPKKD,no binding,no binding,no binding
21-11 (ligand) AHYNTEILKSIDNEWRKTQCMPREVCIDVGKEYPDEIEYIFKPSCVPLMRCGGCCNSEGLQCVPTEESNITMQIMRITVPLSQGPKPVTISFLQHNKCECRPKKD,no binding,no binding,no binding
23-11 (ligand) AHYNTEILKSIDNEWRKTQCMPREVCIDVGKEYPDEIEYIFKPPCVSVYRCGGCCNSEGLQCVPTEESNITMQIMRITVPLSQGPKPVTISFLQHNKCECRPKKD,no binding,no binding,no binding
31-3 (ligand) GQNHHEVVKSIDNEWRKTQCMPIETLVDIFQEYPDEIEYIFKPSCVPLMRCGGCCNDEGLECVPTEESNITMQIMRITVPLSQGPKPVTISFLQHNKCECRPKKD,no binding,no binding,no binding
31-11 (ligand) GQNHHEVVKSIDNEWRKTQCMPIETLVDIFQEYPDEIEYIFKPSCVPLMRCGGCCNSEGLQCVPTEESNITMQIMRITVPLSQGPKPVTISFLQHNKCECRPKKD,no binding,no binding,no binding
